The target in this experiment is eOD-GT6 (germline-targeting engineered outer domain of gp120) (HIV-1 isolate HXB2, engineered outer …). Nature of the experiment: SPR. (In general: SPR reads the build-up and loss of mass on a sensor chip optically.)

Consider one molecule from publication PMC3689846 (Science (New York, N.Y.), 2013).

Broadly, the Kd is the equilibrium constant for the complex coming apart. The low end stands for tighter binding, the high end for weaker binding.

B1: NIH45-46 (mature) (antibody, V domains shown)
VH: QVRLSQSGGQMKKPGESMRLSCRASGYEFLNCPINWIRLAPGRRPEWMGWLKPRGGAVNYARKFQGRVTMTRDVYSDTAFLELRSLTSDDTAVYFCTRGKYCTARDYYNWDFEHWGRGAPVTVSS
VL: EIVLTQSPATLSLSPGETAIISCRTSQSGSLAWYQQRPGQAPRLVIYSGSTRAAGIPDRFSGSRWGADYNLSISNLESGDFGVYYCQQYEFFGQGTKVQVD
With B1, the affinity, expressed as Kd, was 4 nM.
